Test results published in the nanobody polyreactivity screen of Harvey et al. (2022).

test: yeast display, Sf9 membrane polyspecificity reagent, FACS + sequencing; frameworks hold sequencing errors
Procedure, shortened: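 Sorting gates, low and high (top ~1%), were placed on anti-HA fluorescence to track expression and on streptavidin fluorescence to track reagent binding. A clone's polyreactivity label is taken from the gate it came out of. The reagent was 10% biotinylated, detergent-solubilized Sf9 membrane, applied for 1 hour at 4 °C to galactose-induced yeast display cells.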

Sequence | polyreactivity (PSR sort gate)
PVQLVESGGGLVQAGGSLRLSCAASGRTFRSNCMGWYRQAPAKERDLVATISEGGGSTYYADSVKGRFTISRDHAKNNVYLQMNSLKTEYTAVYYCAADKWYVLHYLDMNYWGQGTQVTVSA | high polyreactivity
PVQLVESGGGLVQAGGSLRLSCAASGRTFYAFDMGWSRQAPGKERELVSRITSGGSTDYADSVKGRFTSSRDNAKNTVYLQMNSLKPEDTAVYYCAAETSYAVSTGDHFDYWGQGTQVTVSS | high polyreactivity
PVQLVESGGGLVQAGGSLRLSCAASGSTFYPNAMGWYRQAPGKEWELVAASTAGGSTYYADSVKGRFTISRDNAKNTVYLQMTSLKPEDTAVYSCAADFYWYWWQDWYDYWGQGTQVTVSS | high polyreactivity
PVQLVESGGGLVQAGGSLRLTCAASGFTLTSNAMGWYRQAPGKERELVAAISKSGGSTHYADSVKGRFTISRDNAKNTVYLQMNSLKAEDTAVYYCATPYHRRFKGGDYWGQGTQVSVSS | high polyreactivity
PVQLVESGGGLVQAGGSLRVSCAASGSIFYKNAMGWYRQAPGKEREMVAAITSSGGRTYYADSVKGRFTISRDNPKNTVYLQMNSLKPEDTAVFYCAAVYGYDKYDSWGLGTQVTVSS | low polyreactivity
PVQLVESGGGLVQEGGSLRLICAASGRTFYGYAMGCYRPAPGKEREFVAAINSSGGTTYYADSVKGRCTISRDNAKNTVYRAMNSVKPEDTAFSYCAAVYSRIRRWPGYNAYDYWGHGTQVTVSS | high polyreactivity
PVQLVESGGGVVQAGGSLRLSCAASGSTFEYYAMGWYRQAPGKERELVAAITRRGGSTYSADSVKGRFTISRDNAKNTVYVQMNSLKPEDTAVYYCAAKGFPRSGYPYQAQHMYYWGQGTQVTVSS | low polyreactivity
PVQLVVSGGGLVQAGGSLRLSWAASGLIFRYYAMGWYRQAPGKERELVATIRGGGSTYYADSVKGRFTISRDKAKNTVTLQMNSLKPEATAVDYSAADPYSYGARGARGDYWGQGTQGTVSS | low polyreactivity
QAELVESGGGLVQAGGSLRLSCAASGFTFTAYPMGWYRQAPGKERELVAAISYRGGRTNYAYSVKGRFTISRDNAKNTVYLQMNRLKPEDTAVYYCAARPRISTREMDYWGQGTQVTVSS | high polyreactivity
QAQLQESGGSLVKAGGGLRLSCAASGYISVGSVMGRYRQAPSKERELVASIDQGANTNYADSVKGRFTISRDNGKNNVYLQMNSLKPEDTAVYYCATETTYILNYWGQGTEVTVSS | low polyreactivity
QAQLVESGGGLVQAGGSLRLSCAASGFTFSFNAMGWYRQAPGKERELVAAISSTGSSTYYADSVKGRFTISRDNAKNTVYLQMNSLKPEDTAVYYCAASRRGYRPRRYDYWGQGTQVTVSS | high polyreactivity
QDHLVDSGGGLVQAGGSLRLSCAAYGFTFYYNTMGWYRQAPGKERQLVAAISYSAGSTFYADSVKGRFTISRDNAKNTVYLQMNSLKPEDTAVYYCAAGRPRLHKGYHFGYWGQGTQVTVSS | low polyreactivity
QDHLVESGGGLVPAGGSLRLSCAASGRIVYYVMGRYRQAPGKERELVAAISTRGGSTYYADSVKGRFTISRDNPKNTVYLQMNSLKAEDTAVYYCADSSLLTRYNSWGQGTQVTVSS | high polyreactivity
QDHLVESGGGLVQAGGSLRLICAASGSTFTQYTMGWYRQAPGKERELVAAISSGGGRTYYADSVKGRFTISRDNAKNTVYLQMYSLKPEDTAFYYCAADYQNSRRGRGNSQYYYWGQGTQVTVSS | low polyreactivity
QDHLVESGGGVVQAGGSLRLSCAATGSTIYRYPMGSYRQAPGNERELVAAISTRGGSTYYADSVKGRFTISRDNRKNTVYLQMNSLKPVDTAVYYCAAKCGSPDDYDYWGQGTQVTVSS | high polyreactivity
QDKLVESGGGLVQAGGSLRLSCAASGSTSRDNAMVWYRQAPGKERELVAAITVIDGTTYYADSVKGRFTISRDNAKNTLYLQMNSLKPEDTAVYYCAADTIWFEYYYWGQGTQVTVSS | low polyreactivity
QDQHVESGGGLVQAGGSLRLICDASGTFKFSAMGWYRQAPGKERELVARISRGGTTNYADSVKGRFTISRDNAKNTVYLQMNSLKPAETAVYYCAAPLRYVYSNSYWAYRYDYSGQGTQVTVSS | high polyreactivity
QDQHVESGGGLVQAGGSLRLSCAASGLTFDQYAMGWYRQAPGKERELVAAISGSDSTYYADSVKGRFTISRDNAKNTVYLQMNSLKPEDTAVYYCAASGDYVNIITGERFDARLYDYWGQGTQVTVSS | low polyreactivity
QDQHVESGGGLVQAGGSLRLSCAASGNTFIRNVMGWYRLAPGKERELVAGIRTGGSTFYADSVKGRFTISRDNAKNTVYLQMNSLKPEDTAVYYCKAEVGDEGNLPYVIRPMDYWGQGTQVTVSS | low polyreactivity
QDQHVESGGGLVQAGGSLRLSCAASGRIYDPYAMGWYRPAPGKERELVATISYSDGSTYYADSVKGRFTISRDNAKNTVYLQMNSLKPEDTAVYYGNAEFVGWWGYPTVLRLEYWGQGTQVTVSS | low polyreactivity
QDQHVESGGGLVQAGGSLRLSCAASGSNFDVYAMGWYRQAPGKERELVATISYGDSSTYYADSVKGRFTISRDNAKNTVYLQMNSLKPEDTAVYYCAADYLTAPRWRQWGVMDYWGQGTLVTVSS | low polyreactivity
QDQHVESGGGLVQAGGSLRLSCAASGSTFAWYSMGWYRQAPGKERELVASITSTGSTNYADSVKGRYTISRDNAKNTVYLQMNSLKPVDTAVYYCAAAVRAWYLRLYDYWGQGTQVTVSS | high polyreactivity

Sequence | polyreactivity (PSR sort gate)
QDQHVESGGGLVQAGGSLRLSGAASGRTVGWYAMGWYRQAHGKVRELVAAITSSVDSTYYADSVKGRFTISRDNAKNTVYLLMNRLKPEDTAVYYCAADYDDGFYLYDYWGQGTQVTVSS | low polyreactivity
QDQHVESGGGLVQAGGSQRLSCAAYGFIFWIYAMGWYRQAPGKEREFVAVITYRGDTTYYADSVKGRFTISRDNAKNTVFLQMNSMKPEDTAVYYCAAYTVQKYGYWGQGTQVTVSS | low polyreactivity
QDQHVESGVGLVQAGGSLRLSCAASGSIFGNYAMGWYRQAPGKERELVAAIRVSDGRTYDADSVKGRFTISRDNAKNTVYLQMNSLKPEDTAVYYCAAESESSYGPYDYWGQGTQVTVSS | low polyreactivity
QDQHVESGVGLVQEGGSLRLSCAASGIIIDEYAMGLYRQAPGKERELVAAISSRGTNTYYADSVKGRFTISRDNAKNTVYLQMNSLKPEDTAVYYCAARRPPVTRHFGYWGQGTQVTVSS | high polyreactivity
QDQHVETGGGLVQAGGSLRLSCAASGRTFKFYAMGWYRQAHGKERELVAAITSGGKTNYADSVKGRFTISRDNAKNTVYLQLNSLKPEDTAVYYCKADAGRLSNRYRLWTYGYWGQGTQVTVSS | low polyreactivity
QDQIVESGGGLVQAGGSLRLIFAASGLTIARNAMGWYRQAPGKERELVAAISFSGGSTYYADSVKGRFTISRDNAKNTVYLLMNSLKPEDTAVYYCNTLLRRDFNYWGQGTQVTVSS | high polyreactivity
QDQIVESRGRLVQAGGSLRLSCAASGRTFKPYAMGWYRQAPGKERELVARISGSGGSTYYADSVKGRFTISRDNAKNTVYLQMNSLKPEDTAVYDCATTPYYWFYYWGQGTQVTVSS | low polyreactivity
QDQIVESWGGLVQSGGSLRLTCAASGRTFSTYAMGWYRQAPGKERELVAAISWRGARTYYADSVKGRFTISRDNAKNTVYLQMNSLKPEDTAVYYCAAAPYRYRRYEYWGQGTQVTVSS | high polyreactivity
QDQLEESGGGLLQARGSLRLSCAASGSIFTCNGRGWYRQAPGKERELVAAISNGASTNYADSVKGRFTISRDNAKNSVYLQMNSLKPEDTAVYYCAAKSTGRYDYWGQGTQGTVSS | low polyreactivity
QDQLEESGGGLVHAGGSLRLSCAASGRIFLTNAMGWYRQAPGKERELVAAITSGGSTYYADSVKGRFTISRDNEMNTVYLQMNSLNPEDTAVYYCNAYVTSGYANEYYWGQGSQVTVSS | low polyreactivity
QDQLEESGGGLVQAGGSLRLSCAASGFIFNHYAMGWYRQAPGKEREFVAAISWSGGSTYYADSVKGRFTISRDYAKNTVYLQMNSLKPEDTAVYYCAASYNGLWHGDYDYWGQGTQVTVSS | low polyreactivity
QDQLEESGGGLVQAGGSLRLSCAASGRIFFRNLMGAYRQPTGKERELVATITSGGRTYYADSVKGRFTISRDNAKNTVYLQMNSLKPVDTAVYYCATVYRPGGVYGYEYWGQGTQVTVSS | high polyreactivity
QDQLEESGGGLVQAGGSLRLSCAASGRTFIYYAMGWYRQAPGKERELVAAITRSGGITNYADSVKGRFTISRDNSKNTVYLQMNSLKTEDTEVYYCAARFYGRRCIYGYWGQGTQVTVSS | high polyreactivity
QDQLGESGGGLVQAGGSLRLSCAASGFTFWWYAMGWYRQAPGKERELVAGITSGASTYYADSVKGRYTISRDNAKNTVYIQMNSLKPEDTAVYYCAADWLGWYQPYDYWGQGTQVTVSS | low polyreactivity
QDQLGESGGGLVQAGGSLRLSCAASGSTFTWYAMGWYRQAPGKERELVAAISRGGSTNYADSVKGRFTISRDNAKNTVYLQMNSLKPEDTAVYYFAAESYWRDDYWGQGTQVTLSS | low polyreactivity
QDQLVDSGGGLDQAGGSLRLSCAASGIIFPRYALGWYRQAPGKERELVAAITRRGGRTYYADSVKGRFTISRDNAKNTVYLQMNSLKPEDTAVYYCNADFISTLPPKATEEDYWGQGTQVTVSS | high polyreactivity
QDQLVDSGGGLLQAGGSLSLSCAASGHIIQVKTMGWYRQAPGKERELVASISASVGSTYYADSVKGRFTISRDNAKNTVYLQMNSLKPEDTAVYYCAKSLGYSVVRTLSPTGFYYWGQGTQVTVSS | low polyreactivity
QDQLVDSGGGLVQAGGSLRLICAASGYIIHDNAMGWYRQAPGKERELVAAINRGGSTHYADSVKGRFTISRDNAKNTVYLQMNSLKPEDTAVYYCAAKDGRSYYDRTPMDYWGQGTQVTVSS | low polyreactivity
QDQLVDSGGGLVQAGGSLRLRCGASGRILAWYAMGWYRQAPGKEREFVAGNTGSVGSTYYADSVKGRFTNSRDNEKNTVDLQMNSLKPEDTAVYYCYNEWDSTSGQKHYYWGQGTQVTVSS | low polyreactivity
QDQLVDSGGGLVQAGGSLRLSCAASGRIFTINAMGWYRQAPGKERELVAAITYSGGSTYADSVKGRFTISRDNAKNTVYLQMNSLKPEDTAVYYCNAKLTWSRRYVRYNYWGQGTQVTVSS | high polyreactivity
QDQLVDSGGGLVQAGGSLRLSCAASGSTFGYYVMGWYRQAPGKERELVAAISDSDGSTYYADSVKGRFTISRDNAKNTVYLQMYSLKPEDTAVYYCATGPHQPPYSYLDYDYWGQGTQVTVSS | low polyreactivity
